B1: Sb#21 (VHH)
VHH: QVQLVESGGGLVQAGGSLRLSCAASGFPVKHHWMFWYRQAPGKEREWVAAIKSYGYGTEYADSVKGRFTISRDNAKNTVYLQMNSLKPEDTAVYYCFVGVGTHYAGQGTQVTVS
B2: Sb#39 (VHH)
VHH: QVQLVESGGGLVQAGGSLRLSCAASGFPVFHVWMEWYRQAPGKEREWVAAIDSAGWHTYYADSVKGRFTISRDNAKNTVYLQMNSLKPEDTAVYYCNVKDAGNTTSAYDYWGQGTQVTVS
B3: Sb#30 (VHH)
VHH: QVQLVESGGGLVQAGGSLRLSCAASGFPVTMAWMWWYRQAPGKEREWVAAIRSEGVRTYYADSVKGRFTISRDNAKNTVYLQMNSLKPEDTAVYYCNVKDYGQAHAYYDYWGQGTQVTVS
B4: Sb#9 (VHH)
VHH: QVQLVESGGGLVQAGGSLRLSCAASGFPVSSSTMTWYRQAPGKEREWVAAINSYGWETHYADSVKGRFTISRDNAKNTVYLQMNSLKPEDTAVYYCYVYVGGSYIGQGTQVTVS
B5: Sb#19 (VHH)
VHH: QVQLVESGGGLVQAGGSLRLSCAASGFPVNSHEMTWYRQAPGKEREWVAAIQSTGTVTEYADSVKGRFTISRDNAKNTVYLQMNSLKPEDTAVYYCYVYVGSSYLGQGTQVTVS
B6: Sb#3 (VHH)
VHH: QVQLVESGGGLVQAGGSLRLSCAASGFPVNYKTMWWYRQAPGKEREWVAAIWSYGHTTHYADSVKGRFTISRDNAKNTVYLQMNSLKPEDTAVYYCVVWVGHNYEGQGTQVTVS
B7: Sb#28 (VHH)
VHH: QVQLVESGGGLVQAGGSLRLSCAASGFPVYHSTMFWYRQAPGKEREWVAAIYSSGQHTYYADSVKGRFTISRDNAKNTVYLQMNSLKPEDTAVYYCNVKDSGQWRQEYDYWGQGTQVTVS
B8: Sb#37 (VHH)
VHH: QVQLVESGGGLVQAGGSLRLSCAASGFPVYHAYMEWYRQAPGKEREWVAAIYSNGEHTYYADSVKGRFTISRDNAKNTVYLQMNSLKPEDTAVYYCNVKDSGSFNQAYDYWGQGTQVTVS
B9: Sb#29 (VHH)
VHH: QVQLVESGGGLVQAGGSLRLSCAASGFPVEHEMAWYRQAPGKEREWVAAIRSMGRKTLYADSVKGRFTISRDNAKNTVYLQMNSLKPEDTAVYYCNVKDFGYTWHEYDYWGQGTQVTVS
B10: Sb#38 (VHH)
VHH: QVQLVESGGGLVQAGGSLRLSCAASGFPVEWSHMHWYRQAPGKEREWVAAIVSKGGYTLYADSVKGRFTISRDNAKNTVYLQMNSLKPEDTAVYYCNVKDYGVHFKRYDYWGQGTQVTVI
B11: Sb#6 (VHH)
VHH: QVQLVESGGGLVQAGGSLRLSCAASGFPVEQGRMYWYRQAPGKEREWVAAIISHGTVTVYADSVKGRFTISRDNAKNTVYLQMNSLKPEDTAVYYCYVYVGAQYWGQGTQVTVS
B12: Sb#12 (VHH)
VHH: QVQLVESGGGLVQAGGSLRLSCAASGFPVKASRMYWYRQAPGKEREWVAAIQSFGEVTWYADSVKGRFTISRDNAKNTVYLQMNSLKPEDTAVYYCYVWVGQEYWGQGTQVTVS
B13: Sb#27 (VHH)
VHH: QVQLVESGGGLVQAGGSLRLSCAASGFPVYNTWMEWYRQAPGKEREWVAAITSHGYKTYYADSVKGRFTISRDNAKNTVYLQMNSLKPEDTAVYYCNVKDEGDMFTAYDYWGQGTQVTVS
B14: Sb#33 (VHH)
VHH: QVQLVESGGGLVQAGGSLRLSCAASGFPVAHAWMEWYRQAPGKEREWVAAITSYGYKTYYADSVKGRFTISRDNAKNTVYLQMNSLKPEDTAVYYCNVKDTGTYRFYYDYWGQGTQVTVS
B15: Sb#10 (VHH)
VHH: QVQLVESGGGLVQAGGSLRLSCAASGFPVQSHYMRWYRQAPGKEREWVAAIESTGHHTAYADSVKGRFTISRDNAKNTVYLQMNSLKPEDTAVYYCTVYVGYEYHGQGTQVTVS
B16: Sb#2 (VHH)
VHH: QVQLVESGGGLVQAGGSLRLSCATSGFPVYQANMHWYRQAPGKEREWVAAIQSYGDGTHYADSVKGRFTISRDNAKNTVYLQMNSLKPEDTAVYYCRAVYVGMHYFGQGTQVTVS
B17: Sb#25 (VHH)
VHH: QVQLVESGGGLVQAGGSLRLSCAASGFPVHAWEMAWYRQAPGKEREWVAAIRSFGSSTHYADSVKGRFTISRDNAKNTVYLQMNSLKPEDTAVYYCNVKDFGTHHYAYDYWGQGTQVTVS
B18: Sb#36 (VHH)
VHH: QVQLVESGGGLVQAGGSLRLSCAASGFPEIAWEMAWYRQAPGKEREWVAAIRSFGERTLYADSVKGRFTISRDNAKNTVYLQMNSLKPEDTAVYYCNVKDFGWQHQEYDYWGQGTQVTVS
B19: Sb#1 (VHH)
VHH: QVQLVESGGGLVQAGGSLRLSCAASGFPVRKANMHWYRQAPGKEREWVAAIMSKGEQTVYADSVEGRFTISRDNAKNTVYLQMNSLKPEDTAVYYCRVFVGWHYFGQGTQVTVS
B20: Sb#8 (VHH)
VHH: QVQLVESGGGLVQAGGSLRLSCAASGFPVNAGNMHWYRQAPGKEREWVAAIQSYGRTTYYADSVKGRFTISRDNAKNTVYLQMNSLKPEDTAVYYCRVFVGMHYFGQGTQVTVS
B21: Sb#31 (VHH)
VHH: QVQLVESGGGLVQAGGSLRLSCAASGFPVNSHFMEWYRQAPGKEREWVAAIQHSSGFHTYYADSVKGRFTISRDNAKNTVYLQMNSLKPEDTAVYYCNVKDTGTTEDYDYWGQGTQVTVS
B22: Sb#5 (VHH)
VHH: QVQLVESGGGLVQAGGSLRLSCAASGFPVFSGHMHWYRQAPGKEREWVAAILSNGDSTHYADSVKGRFTISRDNAKNTVYLQMNSLKPEDTAVYYCRVHVGAHYFGQGTQVTVS
B23: Sb#11 (VHH)
VHH: QVQLVESGGGLVQAGGSLRLSCAASGFPVETENMHWYRQAPGKEREWVAAIYSHGMWTAYADSVKGRFTISRDNTKNTVYLQMNSLKPEDTAVYYCEVEVGKWYFGQGTQVTVS
B24: Sb#13 (VHH)
VHH: QVQLVESGGGLVQAGGSLRLSCAASGFPVYASNMHWYRQAPGKEREWVAAIESQGYMTAYADSVKGRFTISRDNAKNTVYLQMNSLKPEDTAVYYCWVIVGEYYVGQGTQVTVS
B25: Sb#32 (VHH)
VHH: QVQLDESGGGLVQAGGSLRLSCAASGFPVYHAWMEWYRQAPGKEREWVAAITSSGRHTYYADSVKGRFTISRDNAKNTVYLQMNSLKPEDTAVYYCNVKDAGRVYNSYDYWGQGTQVTVS
B26: Sb#48 (VHH)
VHH: QVQLVESGGGLVQAGGSLRLSCAASGFPVSQSVMAWYRQAPGKEREWVAAIYSKGQYTHYADSVKGRFTISRDNAKNTVYLQMNSLKPEDTAVYYCNVKDAGSSYWDYDYWGQGTQVTVS
B27: Sb#49 (VHH)
VHH: QVQLVESGGGSVQAGGSLRLSCAASGSIGQIEYLGWFRQAPGKEREGVAALNTWTGRTYYADSVKGRFTVSLDNAKNTVYLQMNSLKPEDTALYYCAAARWGRTKPLNTYYYSYWGQGTPVTVS
B28: Sb#20 (VHH)
VHH: QVQLVESGGGLVQAGGSLRLSCAASGFPVEQREMEWYRQAPGKEREWVAAIDSNGNYTFYADSVKGRFTISRDNAKNTVYLQMNSLKPEDTAVYYCYVYVGKSYIGQGTQVTVS
B29: Sb#23 (VHH)
VHH: QVQLVESGGGLVQAGGSLRLSCAASGFPVYAAEMEWYRQAPGKEREWVAAISSQGTITYYADSVKGRFTISRDNAKNTVYLQMNSLKPEDTAVYYCFVYVGKSYIGQGTQVSVS
B30: Sb#46 (VHH)
VHH: QVQLVESGGGLVQAGGSLRLSCAASGFPVDNGYMHWYRQAPGKEREWVAAIDSYGWHTIYADSVKGRFTISRDNAKNTVYLQMNSLKPEDTAVYYCNVKDKGQMRAAYDYWGQGTQVTVS
B31: Sb#35 (VHH)
VHH: QVQLVESGGGLVQAGGSLRLSCAASGFPVEHYWMEWYRQAPGKEREWVAAITSFGYRTYYADSVKGRFTISRDNAKNTVYLQMNSLKPEDTAVYYCNVKDWGFASHAYDYWGQGIQVTVS
B32: Sb#17 (VHH)
VHH: QVQLVESGGGLVQAGGSLRLSCAASGFPVAGRNMWWYRQAPGKEREWVAAIYSSGTYTEYADSVKGRFTISRDNAKNTVYLQMNSLKPEDTAVYYCHVWVGSLYKGQGTQVTVS
B33: Sb#26 (VHH)
VHH: QVQLVESGGGLVQAGGSLRLSCAASGFPVNTWWMHWYRQAPGKEREWVAAITSWGFRTYYADSVKGRFTISRDNAKNTVYLQMNSLKPEDTAVYYCNVKDKGMAVQWYDYWGQGTQVTVS
B34: Sb#40 (VHH)
VHH: QVQLVESGGGLVQAGGSLRLSCAASGFPVYYNWMEWYRQAPGKEREWVAAIHSNGDETFYADSVKGRFTISRDNAKNTVYLQMNSLKPEDTAVYYCNVKDIDAEAYAYDYWGQGTQVTVS

What follows are binders tested against SARS-CoV-2 RBD construct consisting of residues Pro330-Gly526 fused to Venus YFP (RBD-vYFP) (SARS-CoV-2, UniProt P0DTC2).
B1: binds.
B2: binds.
B3: binds.
B4: binds.
B5: binds.
B6: binds.
B7: binds.
B8: binds.
B9: binds.
B10: binds.
B11: binds.
B12: binds.
B13: binds.
B14: binds.
B15: binds.
B16: binds.
B17: binds.
B18: binds.
B19: binds.
B20: binds.
B21: binds.
B22: binds.
B23: binds.
B24: binds.
B25: binds.
B26: binds.
B27: binds.
B28: binds.
B29: binds.
B30: binds.
B31: binds.
B32: binds.
B33: binds.
B34: binds.

Reference: paper doi:10.1101/2020.04.16.045419 (bioRxiv, 2020)
